The record followed here is patent US20150098945A1 (Daiichi Sankyo, published 2015).

The target in this assay is T1, recombinant human ROBO4 extracellular region polypeptide rROBO4-ECD (human, UniProt Q8WZ75 28-461).
T1 construct: Expressed from pEF6/V5-His-TOPO in FreeStyle 293-F cells; also called human ROBO4-ECD
T1 sequence: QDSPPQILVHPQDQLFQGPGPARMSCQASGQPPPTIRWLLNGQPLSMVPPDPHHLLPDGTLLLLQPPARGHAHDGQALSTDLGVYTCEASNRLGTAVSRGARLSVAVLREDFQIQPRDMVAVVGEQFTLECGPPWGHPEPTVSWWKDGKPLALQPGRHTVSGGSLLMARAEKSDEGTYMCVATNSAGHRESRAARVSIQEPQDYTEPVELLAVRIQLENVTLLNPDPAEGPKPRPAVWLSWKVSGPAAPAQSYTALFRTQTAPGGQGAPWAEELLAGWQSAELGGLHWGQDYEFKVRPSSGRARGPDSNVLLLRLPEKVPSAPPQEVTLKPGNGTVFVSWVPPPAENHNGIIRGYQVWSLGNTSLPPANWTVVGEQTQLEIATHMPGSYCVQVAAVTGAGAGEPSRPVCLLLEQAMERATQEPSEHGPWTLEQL
Kind of assay: SPR (Biacore 3000), antibody captured via anti-human IgG on CM5, rROBO4-ECD as analyte, 1:1 model. As for the experimental part: The dissociation constant between each antibody and rROBO4-ECD was determined with the antibody immobilized as a ligand and the antigen as an analyte using Biacore 3000 (manufactured by GE Healthcare Bio-Sciences Corp.). Approximately 80 RU of the antibody was bound via an anti-human IgG antibody (manufactured by GE Healthcare Bio-Sciences Corp.) immobilized on a sensor chip CM5 (manufactured by GE Healthcare Bio-Sciences Corp.) by an amine coupling method. The running buffer used was PBS containing 0.05% Surfactant P20. Dilution series solutions (0.1-200 nM) of the antigen were added at a flow rate of 30 μL/min. for 300 seconds onto the antibody-bound chip. Subsequently, a dissociation phase was monitored for 300 seconds. 3 M MgCl₂ was added thereto as a regeneration solution at a flow rate of 10 μL/min. for 30 seconds. Data was analyzed using the 1:1 binding model of analysis software (BIAevaluation Software, version 4.1) to calculate an association rate constant kon, a dissociation rate constant koff, and a dissociation constant (KD; KD=koff/kon).

Residue numbers refer to the chain shown, from its start.

B1: humanized MAb1 antibody H-1040 (antibody, human IgG2, kappa, V domains shown)
VH: EVQLVESGGGLVQPGGSLRLSCAASGFTFSTYAMSWVRQAPGKGLEWVATISNGGTYTYYPDSVKGRFTISRDNAKNTLYLQMNSLRAEDTAVYYCARLIYYDYLDYWGQGTLVTVSS
VL: DIVMTQSPLSLPVTLGEPASISCRSSQSLENSNGNTYLNWYLQKPGQSPQLLIYRVSNRFSGVPDRFSGSGSGTDFTLKISRVEAEDVGVYYCLQVTHVPWTFGPGTKVDIKR
notes: Human IgG2 / kappa constant regions; also called hMAb1-H1-type heavy chain + hMAb1-L1-type light chain
Consider B1, for which the dissociation constant Kd is 0.41 nM.

B2: humanized MAb1 antibody H-2040 (antibody, human IgG2, kappa, V domains shown)
VH: B1 VH with G44R
VL: B1 VL
notes: Human IgG2 / kappa constant regions; also called hMAb1-H3-type heavy chain + hMAb1-L1-type light chain
As to B2, the equilibrium dissociation constant (Kd) came to 0.4 nM.
